From article PMC3456991 (Journal of molecular biology, 2012)
Residue numbers refer to the chain shown, from its start. Numbers in names are those of the source. Like-named read-outs stand apart in the source and are kept apart here.

B1: Fis1ΔTM-C79S/C87S (domain or fragment, Saccharomyces cerevisiae)
chain: MMTKVDFWPTLKDAYEPLYPQQLEILRQQVVSEGGPTATIQSRFNYAWGLIKSTDVNDERLGVKILTDIYKEAESRRRESLYYLTIGSYKLGEYSMAKRYVDTLFEHERNNKQVGALKSMVEDKIQKE
B2: Fis1ΔTM (1-127), wild type cytoplasmic domain of yeast Fis1 (domain or fragment, Saccharomyces cerevisiae)
chain: B1 chain with S80C, S88C
B3: Fis1ΔTM-A72P (domain or fragment, Saccharomyces cerevisiae)
chain: B1 chain with A73P, S80C, S88C
B4: Fis1ΔTM (1-126) without a linker or affinity tag, for NMR (domain or fragment, Saccharomyces cerevisiae, UniProt P40515 1-126, looked up)
chain: MTKVDFWPTLKDAYEPLYPQQLEILRQQVVSEGGPTATIQSRFNYAWGLIKSTDVNDERLGVKILTDIYKEAESRRRECLYYLTIGCYKLGEYSMAKRYVDTLFEHERNNKQVGALKSMVEDKIQK
B5: Fis1ΔTM-3 (E78D/I85T/Y88H) (domain or fragment, Saccharomyces cerevisiae)
chain: B1 chain with E79D, S80C, I86T, S88C, Y89H

Experiments:
[1] = target: the molecule itself; test: SEC
[2] = target: the molecule itself; test: SEC; remark: listed apart in the source
[3] = target: the molecule itself; test: SEC; remark: listed apart in the source
[4] = target: the molecule itself; test: SEC-MALS
[5] = target: the molecule itself; test: NMR chemical shift comparison of monomer and dimer

Protein	binding result [1]	Kd [3]	further results
B1	binds	–	–
B2	–	15 ± 3 µM	Kd [2]: 0.24 ± 0.08 µM; stoichiometry N [4]: 2
B3	–	≥ 3000 µM	–
B4	–	–	binding result [5]: binds
B5	binds	–	–
